Here are results for 34 variants from the Human Domainome abundance scans (Beltran et al. 2025).

± gives the uncertainty stated by the source.

Sequences and labels used below:
B1: Gamma-crystallin S, residues 96 to 176; numbered along this chain, P22914 (parent)
chain: IQIFEKGDFSGQMYETTEDCPSIMEQFHMREIHSCKVLEGVWIFYELPNYRGRQYLLDKKEYRKPIDWGAASPAVQSFRRI

In the series the parent is B1. Kind of series: abundance fitness (aPCA) (normalised: wild type 0, dead -1); higher = more abundant; growth selection in yeast, the domain comes from the species named. To be noted: Homo sapiens.
With IQIFEKGDFSGQMYETTEDCPSIMEQFHMREIHSCKVLEGVWIFYELPNYRGRQYLLDKKEYRKPIDWGAASFAVQSFRRI, the abundance fitness turned out to be 0.27 ± 0.31.
Consider IQIFEKGDFSGQMYETTEDCPSIMEQFHMREIHSCKVLEGVWIFYELPNYRGRQYLLDKKEYRKPIDWGAASGAVQSFRRI, for which the abundance fitness is -0.309 ± 0.16.
The result for IQIFEKGDFSGQMYETTEDCPSIMEQFHMREIHSCKVLEGVWIFYELPNYRGRQYLLDKKEYRKPIDWGAASTAVQSFRRI reads -0.082 ± 0.39; that for IQIFEKGDFSGQMYETTEDCPSIMEQFHMREIHSCKVLEGVWIFYELPNYRGRQYLLDKKEYRKPIDWGAASDAVQSFRRI, -0.23 ± 0.24; that for IQIFEKGDFSGQMYETTEDCPSIMEQFHMREIHSCKVLEGVWIFYELPNYRGRQYLLDKKEYRKPIDWGAASHAVQSFRRI, 0.006 ± 0.31.
Under IQIFEKGDFSGQMYETTEDCPSIMEQFHMREIHSCKVLEGVWIFYELPNYRGRQYLLDKKEYRKPIDWGAAAPAVQSFRRI stands -0.016 ± 0.11; under IQIFEKGDFSGQMYETTEDCPSIMEQFHMREIHSCKVLEGVWIFYELPNYRGRQYLLDKKEYRKPIDWGAALPAVQSFRRI, 0.002 ± 0.14.
Under IQIFEKGDFSGQMYETTEDCPSIMEQFHMREIHSCKVLEGVWIFYELPNYRGRQYLLDKKEYRKPIDWGAAMPAVQSFRRI stands -0.149 ± 0.19; under IQIFEKGDFSGQMYETTEDCPSIMEQFHMREIHSCKVLEGVWIFYELPNYRGRQYLLDKKEYRKPIDWGAAFPAVQSFRRI, -0.066 ± 0.15; under IQIFEKGDFSGQMYETTEDCPSIMEQFHMREIHSCKVLEGVWIFYELPNYRGRQYLLDKKEYRKPIDWGAARPAVQSFRRI, -0.154 ± 0.14.
As for IQIFEKGDFSGQMYETTEDCPSIMEQFHMREIHSCKVLEGVWIFYELPNYRGRQYLLDKKEYRKPIDWGAADPAVQSFRRI, the abundance fitness is -0.109 ± 0.32.
Under IQIFEKGDFSGQMYETTEDCPSIMEQFHMREIHSCKVLEGVWIFYELPNYRGRQYLLDKKEYRKPIDWGAATPAVQSFRRI stands -0.1 ± 0.33; under IQIFEKGDFSGQMYETTEDCPSIMEQFHMREIHSCKVLEGVWIFYELPNYRGRQYLLDKKEYRKPIDWGAANPAVQSFRRI, -0.204 ± 0.25; under IQIFEKGDFSGQMYETTEDCPSIMEQFHMREIHSCKVLEGVWIFYELPNYRGRQYLLDKKEYRKPIDWGAAWPAVQSFRRI, 0.007 ± 0.15.
Consider IQIFEKGDFSGQMYETTEDCPSIMEQFHMREIHSCKVLEGVWIFYELPNYRGRQYLLDKKEYRKPIDWGAAQPAVQSFRRI, for which the abundance fitness amounted to 0.086 ± 0.25.
The result for IQIFEKGDFSGQMYETTEDCPSIMEQFHMREIHSCKVLEGVWIFYELPNYRGRQYLLDKKEYRKPIDWGAAEPAVQSFRRI reads 0.125 ± 0.35.
With IQIFEKGDFSGQMYETTEDCPSIMEQFHMREIHSCKVLEGVWIFYELPNYRGRQYLLDKKEYRKPIDWGAACPAVQSFRRI, the abundance fitness was -0.107 ± 0.3.
Under IQIFEKGDFSGQMYETTEDCPSIMEQFHMREIHSCKVLEGVWIFYELPNYRGRQYLLDKKEYRKPIDWGAAPPAVQSFRRI stands 0.069 ± 0.16.
The result for IQIFEKGDFSGQMYETTEDCPSIMEQFHMREIHSCKVLEGVWIFYELPNYRGRQYLLDKKEYRKPIDWGAAYPAVQSFRRI reads 0.173 ± 0.21; that for IQIFEKGDFSGQMYETTEDCPSIMEQFHMREIHSCKVLEGVWIFYELPNYRGRQYLLDKKEYRKPIDWGDASPAVQSFRRI, -0.017 ± 0.16; that for IQIFEKGDFSGQMYETTEDCPSIMEQFHMREIHSCKVLEGVWIFYELPNYRGRQYLLDKKEYRKPIDWGMASPAVQSFRRI, -0.023 ± 0.13.
Under IQIFEKGDFSGQMYETTEDCPSIMEQFHMREIHSCKVLEGVWIFYELPNYRGRQYLLDKKEYRKPIDWGPASPAVQSFRRI stands 0.042 ± 0.3; under IQIFEKGDFSGQMYETTEDCPSIMEQFHMREIHSCKVLEGVWIFYELPNYRGRQYLLDKKEYRKPIDWGIASPAVQSFRRI, 0.111 ± 0.18.
As for IQIFEKGDFSGQMYETTEDCPSIMEQFHMREIHSCKVLEGVWIFYELPNYRGRQYLLDKKEYRKPIDWGTASPAVQSFRRI, the abundance fitness is -0.037 ± 0.2.
Under IQIFEKGDFSGQMYETTEDCPSIMEQFHMREIHSCKVLEGVWIFYELPNYRGRQYLLDKKEYRKPIDWGQASPAVQSFRRI stands -0.057 ± 0.14; under IQIFEKGDFSGQMYETTEDCPSIMEQFHMREIHSCKVLEGVWIFYELPNYRGRQYLLDKKEYRKPIDWGKASPAVQSFRRI, 0.169 ± 0.37; under IQIFEKGDFSGQMYETTEDCPSIMEQFHMREIHSCKVLEGVWIFYELPNYRGRQYLLDKKEYRKPIDWGEASPAVQSFRRI, -0.004 ± 0.093.
For IQIFEKGDFSGQMYETTEDCPSIMEQFHMREIHSCKVLEGVWIFYELPNYRGRQYLLDKKEYRKPIDWGGASPAVQSFRRI, the abundance fitness turned out to be 0.108 ± 0.099.
Under IQIFEKGDFSGQMYETTEDCPSIMEQFHMREIHSCKVLEGVWIFYELPNYRGRQYLLDKKEYRKPIDWGYASPAVQSFRRI stands 0.258 ± 0.19; under IQIFEKGDFSGQMYETTEDCPSIMEQFHMREIHSCKVLEGVWIFYELPNYRGRQYLLDKKEYRKPIDWGRASPAVQSFRRI, 0.104 ± 0.093.
As to IQIFEKGDFSGQMYETTEDCPSIMEQFHMREIHSCKVLEGVWIFYELPNYRGRQYLLDKKEYRKPIDWGHASPAVQSFRRI, the abundance fitness was determined as 0.32 ± 0.27.
Under IQIFEKGDFSGQMYETTEDCPSIMEQFHMREIHSCKVLEGVWIFYELPNYRGRQYLLDKKEYRKPIDWGWASPAVQSFRRI stands -0.147 ± 0.16; under IQIFEKGDFSGQMYETTEDCPSIMEQFHMREIHSCKVLEGVWIFYELPNYRGRQYLLDKKEYRKPIDWGVASPAVQSFRRI, -0.003 ± 0.11.
For the variant IQIFEKGDFSGQMYETTEDCPSIMEQFHMREIHSCKVLEGVWIFYELPNYRGRQYLLDKKEYRKPIDWGFASPAVQSFRRI, the abundance fitness is -0.025 ± 0.18.
